The record followed here is publication PMC10724205.

One experiment deals with CLP1. Put plainly: BioID (proximity biotinylation, streptavidin isolation, mass spectrometry). As to conditions: HEK293T cells, transient transfection, biotin, 24 h; n = 3; read off a plot.
The next experiment addresses MED6 (UniProt O75586). The description is as above. The note with it: HEK293T cells, transient transfection, biotin, 24 h; n = 3; read off a plot.
A further experiment concerns the target p300 (UniProt Q09472). The description is as above. As to conditions: HEK293T cells, transient transfection, biotin, 24 h; n = 3; read off a plot.
A further experiment deals with DNTTIP2. The description is as above. As to conditions: HEK293T cells, transient transfection, biotin, 24 h; n = 3; read off a plot.
A further experiment deals with TAF9 (UniProt Q16594). The description is as above. As to conditions: HEK293T cells, transient transfection, biotin, 24 h; n = 3; read off a plot.
The target in the next experiment is YY1. Described as above. The note with it: HEK293T cells, transient transfection, biotin, 24 h; n = 3; read off a plot.
The target of a further experiment is TCF4. The description is as above. As to conditions: HEK293T cells, transient transfection, biotin, 24 h; n = 3; read off a plot.
In experiment [1] the target is LacI-CFP-FOXO1 fusion protein with the small C-terminal AD deleted. The experiment can be described thus: LacO array recruitment assay; U2OS cells with 50,000 Lac operon repeats on chromosome 1, transfected with CFP-LacI-FOXO1 fusion baits; endogenous p300 detected at the CFP dot by immunofluorescence after 48 h; dots counted for presence or absence of p300.
Experiment [2] has as its target LacI-CFP-FOXO1 fusion protein with the C793S mutant FOXO1 domain. The experiment is described as above.

Chain of UniProt Q09472 (Q09472 whole entry): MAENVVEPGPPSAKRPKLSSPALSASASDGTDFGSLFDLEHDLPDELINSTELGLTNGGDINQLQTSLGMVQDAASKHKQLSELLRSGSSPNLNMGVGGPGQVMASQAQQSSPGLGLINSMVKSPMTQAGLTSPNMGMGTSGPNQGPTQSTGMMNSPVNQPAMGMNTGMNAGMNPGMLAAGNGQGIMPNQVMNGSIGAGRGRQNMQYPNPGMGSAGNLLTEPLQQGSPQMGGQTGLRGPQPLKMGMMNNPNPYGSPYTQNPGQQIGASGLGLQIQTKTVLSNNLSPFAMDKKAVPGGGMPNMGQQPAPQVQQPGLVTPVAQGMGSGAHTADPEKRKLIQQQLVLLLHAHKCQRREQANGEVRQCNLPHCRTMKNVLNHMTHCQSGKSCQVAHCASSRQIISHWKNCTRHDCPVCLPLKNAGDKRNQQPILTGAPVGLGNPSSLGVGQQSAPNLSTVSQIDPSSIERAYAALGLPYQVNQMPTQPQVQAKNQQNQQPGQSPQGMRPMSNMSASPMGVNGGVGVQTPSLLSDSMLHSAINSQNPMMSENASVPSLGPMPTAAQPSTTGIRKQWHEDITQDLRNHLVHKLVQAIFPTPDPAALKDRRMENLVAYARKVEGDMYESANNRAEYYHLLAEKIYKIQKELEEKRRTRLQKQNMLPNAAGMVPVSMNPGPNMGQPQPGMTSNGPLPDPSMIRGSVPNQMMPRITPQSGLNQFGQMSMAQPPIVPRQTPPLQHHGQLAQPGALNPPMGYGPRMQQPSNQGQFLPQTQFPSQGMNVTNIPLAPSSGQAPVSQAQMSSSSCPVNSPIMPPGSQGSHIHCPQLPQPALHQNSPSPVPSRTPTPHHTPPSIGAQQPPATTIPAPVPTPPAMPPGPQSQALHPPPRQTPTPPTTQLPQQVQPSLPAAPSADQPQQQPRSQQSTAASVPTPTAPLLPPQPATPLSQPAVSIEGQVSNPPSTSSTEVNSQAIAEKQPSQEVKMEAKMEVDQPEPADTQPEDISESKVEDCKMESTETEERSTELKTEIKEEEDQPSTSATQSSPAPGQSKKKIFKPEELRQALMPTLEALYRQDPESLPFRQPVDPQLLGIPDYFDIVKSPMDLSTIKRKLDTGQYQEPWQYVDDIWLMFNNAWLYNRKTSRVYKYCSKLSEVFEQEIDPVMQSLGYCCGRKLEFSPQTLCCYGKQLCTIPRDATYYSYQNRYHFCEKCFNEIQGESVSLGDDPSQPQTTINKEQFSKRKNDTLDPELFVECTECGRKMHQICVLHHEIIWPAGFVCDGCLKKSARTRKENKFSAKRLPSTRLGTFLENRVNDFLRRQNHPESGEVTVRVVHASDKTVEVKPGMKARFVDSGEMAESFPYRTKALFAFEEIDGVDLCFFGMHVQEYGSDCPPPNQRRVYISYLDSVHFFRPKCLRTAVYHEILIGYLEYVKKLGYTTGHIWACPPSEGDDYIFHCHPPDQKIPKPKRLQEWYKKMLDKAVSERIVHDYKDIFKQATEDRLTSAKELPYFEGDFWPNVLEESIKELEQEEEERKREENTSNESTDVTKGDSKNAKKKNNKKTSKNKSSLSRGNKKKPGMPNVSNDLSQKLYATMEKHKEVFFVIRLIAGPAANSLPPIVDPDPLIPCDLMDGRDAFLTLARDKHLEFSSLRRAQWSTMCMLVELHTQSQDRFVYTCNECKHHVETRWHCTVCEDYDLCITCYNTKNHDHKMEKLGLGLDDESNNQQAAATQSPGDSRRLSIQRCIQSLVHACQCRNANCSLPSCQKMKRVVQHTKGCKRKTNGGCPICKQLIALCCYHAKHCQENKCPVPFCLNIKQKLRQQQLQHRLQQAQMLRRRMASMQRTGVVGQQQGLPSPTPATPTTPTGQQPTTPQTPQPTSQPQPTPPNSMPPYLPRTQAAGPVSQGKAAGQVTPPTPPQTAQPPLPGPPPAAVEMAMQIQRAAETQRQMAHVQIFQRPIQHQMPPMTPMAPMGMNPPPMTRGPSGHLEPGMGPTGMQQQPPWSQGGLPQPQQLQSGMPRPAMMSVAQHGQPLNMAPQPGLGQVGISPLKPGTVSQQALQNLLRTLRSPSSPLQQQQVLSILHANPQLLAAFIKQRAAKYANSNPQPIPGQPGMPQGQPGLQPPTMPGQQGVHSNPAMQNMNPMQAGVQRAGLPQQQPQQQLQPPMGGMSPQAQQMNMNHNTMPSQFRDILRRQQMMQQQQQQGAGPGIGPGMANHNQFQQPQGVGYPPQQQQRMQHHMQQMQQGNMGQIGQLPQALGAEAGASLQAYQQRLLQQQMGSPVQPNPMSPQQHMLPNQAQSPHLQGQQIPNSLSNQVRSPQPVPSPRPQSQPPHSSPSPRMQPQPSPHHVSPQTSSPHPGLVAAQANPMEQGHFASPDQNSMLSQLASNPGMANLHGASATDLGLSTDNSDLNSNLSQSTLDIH
Chain of UniProt O75586 (O75586 whole entry): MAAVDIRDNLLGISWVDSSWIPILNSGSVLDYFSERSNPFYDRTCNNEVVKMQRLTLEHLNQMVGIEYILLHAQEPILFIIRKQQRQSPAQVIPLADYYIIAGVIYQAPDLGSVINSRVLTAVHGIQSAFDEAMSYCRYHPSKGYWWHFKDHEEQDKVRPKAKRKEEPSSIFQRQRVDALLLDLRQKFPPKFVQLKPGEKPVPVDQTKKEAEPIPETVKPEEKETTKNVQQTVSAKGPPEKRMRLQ
Chain of UniProt Q16594 (Q16594 whole entry): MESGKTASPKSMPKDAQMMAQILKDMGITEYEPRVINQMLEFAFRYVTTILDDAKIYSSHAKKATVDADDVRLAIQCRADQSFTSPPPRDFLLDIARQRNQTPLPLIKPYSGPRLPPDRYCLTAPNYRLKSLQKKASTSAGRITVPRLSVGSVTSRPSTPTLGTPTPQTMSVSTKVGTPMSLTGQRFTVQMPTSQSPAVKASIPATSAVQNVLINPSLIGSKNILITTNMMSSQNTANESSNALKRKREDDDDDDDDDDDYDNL

For “BirA-Flag/PAX3-FOXO1 fusion construct (wildtype P3F) C793S”, the other: Log2 (fold change) of total spectral counts with CLP1 is 2.2; in the experiment with MED6 it was 1.2; with p300, 0.7; with DNTTIP2, 2.5; with TAF9 it was 3.8; with YY1 it was 2.4. Moreover, in the experiment with TCF4, the other: Log2 (fold change) of total spectral counts came out at 1.4.

“p300 (endogenous in U2OS cells) (from UniProt Q09472 1-2414) (natural protein)” came in with a reduction of p300 recruitment against the FOXO1 part of P3F in [1] of 90 percent. In [2], this substance returned a loss of p300 recruitment against the wt FOXO1 of 30 percent.
